Where “and” joins values, the source holds several entries; their conditions need not be identical. Identical values can stand only once. Blank lines part the entries; values can stand above or below the substance they belong to.
How the values were obtained:
RAGE C2 domain (human) [1] = test: ESI-MS under denaturing conditions; 50% acetonitrile and 0.1% formic acid added to the protein sample
RAGE C2 domain (human) [2] = test: AUC; sedimentation velocity, 20 C, 40,000 rpm, 25 mM Tris pH 7.5, 200 mM NaCl, absorbance 280 nm; c(s) distribution (bimodal f/f0 for C2)
RAGE C2 domain (human) [3] = test: native MS; about 10 uM protein; 100 mM ammonium acetate for V_C1 and C2, 500 mM for V_C1_C2; nano-ESI
RAGE C2 domain (human) [4] = test: SEC-MALS; Superdex 200 Increase 10/300, 25 mM Tris-Cl, 0.2 M NaCl, pH 8.0, room temperature, no detergent; C2 fractions re-chromatographed separately
[5] = biological target: RAGE C2_TM_CT (C2 domain, transmembrane region and cytoplasmic tail) (human); test: SEC-MALS; Superdex 200 Increase 10/300, 25 mM Tris-Cl, 0.2 M NaCl, pH 8.0, with 2x CMC DDM, room temperature; 'protein conjugate' analysis (ASTRA) of protein and detergent masses
[6] = biological target: RAGE C2_TM_CT (C2 domain, transmembrane region and cytoplasmic tail) (human); test: ESI-MS under denaturing conditions; 50% acetonitrile and 0.1% formic acid added to the protein sample
[7] = biological target: RAGE C2_TM_CT Mutant 1 (four glycines in the region of the GxxxG motif mutated to alanine) (human); test: SEC-MALS; Superdex 200 Increase 10/300, 25 mM Tris-Cl, 0.2 M NaCl, pH 8.0, with 2x CMC DDM, room temperature; 'protein conjugate' analysis (ASTRA) of protein and detergent masses
[8] = biological target: RAGE C2_TM_CT Mutant 2 (six amino acids that cover the GxxxG motif deleted) (human); test: as above
[9] = biological target: RAGE V_C1 (V and C1 domains) (human); test: native MS; about 10 uM protein; 100 mM ammonium acetate for V_C1 and C2, 500 mM for V_C1_C2; nano-ESI
[10] = biological target: RAGE V_C1_C2 (extracellular part of RAGE) (human); test: AUC; sedimentation velocity, 20 C, 40,000 rpm, 25 mM Tris pH 7.5, 200 mM NaCl, absorbance 280 nm; c(s) distribution (bimodal f/f0 for C2)
[11] = biological target: RAGE V_C1_C2 (extracellular part of RAGE) (human); test: native MS; about 10 uM protein; 100 mM ammonium acetate for V_C1 and C2, 500 mM for V_C1_C2; nano-ESI
[12] = biological target: full-length RAGE (receptor for advanced glycation end-products) (human) (UniProt Q15109); test: AUC; sedimentation velocity, 20 C, 42,000 rpm, 25 mM Tris pH 7.5, 200 mM NaCl with DDM; absorbance 280 nm and interference; f/fo analysis with the GUSSI Membrane Protein module for FL_RAGE
[13] = biological target: full-length RAGE (receptor for advanced glycation end-products) (human) (UniProt Q15109); test: native MS; FL_RAGE about 10 uM in 600 mM ammonium acetate with 0.04% (2x CMC) Triton X-100; nano-ESI, collisional release from the micelle

Substance: RAGE C2 domain (domain or fragment)
fraction of dimeric peaks under denaturing conditions (RAGE C2 domain (human) [1]): 27% | stoichiometry N (RAGE C2 domain (human) [1]): 2 | percent of the total signal in the dimer (RAGE C2 domain (human) [2]): > 65% | stoichiometry N (RAGE C2 domain (human) [2]): 2 | fraction of dimeric signals (RAGE C2 domain (human) [3]): 33% | stoichiometry N (RAGE C2 domain (human) [3]): 2 | stoichiometry N (RAGE C2 domain (human) [4]): 2

Substance: RAGE C2_TM_CT (C2 domain, transmembrane region and cytoplasmic tail) (domain or fragment)
stoichiometry N [5]: 2 | stoichiometry N [6]: 2 and 4 and 6

Substance: RAGE V_C1_C2 (extracellular part of RAGE) (domain or fragment)
percent of the signal in the dimer peak [10]: 17% | stoichiometry N [10]: 2 | fraction of dimers [11]: 11% | stoichiometry N [11]: 2

Substance: full-length RAGE (receptor for advanced glycation end-products) (from UniProt Q15109 23-404)
stoichiometry N [12]: 2 and 3 | stoichiometry N [13]: 2 and 3 and 4

Continued, values first:

stoichiometry N [7]: 2 and 3
Substance: RAGE C2_TM_CT Mutant 1 (four glycines in the region of the GxxxG motif mutated to alanine) (domain or fragment)

stoichiometry N [8]: 2
Substance: RAGE C2_TM_CT Mutant 2 (six amino acids that cover the GxxxG motif deleted) (domain or fragment)

fraction of dimeric signals [9]: 12% | stoichiometry N [9]: 2
Substance: RAGE V_C1 (V and C1 domains) (domain or fragment)

Source: paper PMC6937306
